Here are results for 57 variants from the RNAGym collection of RNA variant scans (doi:10.7554/elife.80360).

The labels stand for the following.
B1: Hammerhead Ribozyme (parent)
chain: ACCGGAUGUGCUUUCCGGUCUGAUGAGUCCGUGAGGACGAAACAG

The variants in the series derive from B1. Put plainly: self-cleavage, relative activity (ratio to wild type); higher = more cleavage; co-transcriptional.
In the case of UCCGGAUGUGCUUUCCGGUCUGAUGAGUCCGUGAGGACGAAUCAG, the self-cleavage turned out to be 0.279.
The value for AACGGAUGUGCUUUCCGGUCUGAUGAGUCUGUGAGGACGAAACAG was 0.847; that for ACAGGAUGUGCUUUCCGGUCUGAUGAGUCCGUGAGGACAAAACAG was 0.277.
Regarding ACCGGAUGUGCUUUCCGGUCCGAUGAGUCCCUGAGGACGAAACAG, the self-cleavage came out at 0.678.
The value for ACCGGAUGUGCUUUCCGGUCUGAUGAGUCCGUGAUGACGAAACAG was 0.817; that for ACCGGAUGUCCCUUCCGGUCUGAUGAGUCCGUGAGGACGAAACAG was 1.26; that for ACUGGAUGUGCUUUCCGGUCUGAUGACUCCGUGAGGACGAAACAG was 0.599.
As for ACCGGAUGUGCUUUCCGGUCUGAUAAGUGCGUGAGGACGAAACAG, the self-cleavage was 0.347.
The value for ACCGGAUGUGCUUUCCAGUCUGAUGAGUGCGUGAGGACGAAACAG was 0.462; that for ACCGGAUGUGCUUUCAGGUCUGAUGAGUCCAUGAGGACGAAACAG was 1.22; that for ACCGGAUGUGCUUUCCGGUCUGAUGAGUCCGUUAGCACGAAACAG was 0.623.
The value for ACCGGAUGUGCUUUCCGAUCUGAUGAUUCCGUGAGGACGAAACAG was 0.393; that for ACCGGAUGUGCUUUCCGGUCAGAUGAGUCCUUGAGGACGAAACAG was 0.554.
On to ACAGGAUGUGCUUUCCGGUCUGAUGAGUCCGUGAGGACGGAACAG, for which the self-cleavage was 0.353.
Consider ACUGGAUGUGCUUUCCGGUCUGAUGAGUCCGUGAGGACGAAGCAG, for which the self-cleavage stood at 0.393.
For ACCGGAUGGGCUUUCCGGUCUGAUGACUCCGUGAGGACGAAACAG, the self-cleavage amounted to 0.455.
In the case of ACCGGAUGUGCUUUCCGGUCUGAUGAGUCGGUGAGGACGAAAGAG it was 0.267; in that of ACCGGAUGUGCUUUCCGGUCUGAUGAGUCCAUGUGGACGAAACAG, 0.954.
In the case of ACCGGAUGUGCUUUCCAGUCUGAUGAGUCCGUGAUGACGAAACAG it was 0.455.
In the case of ACCGGAUGUACUUUCCGGGCUGAUGAGUCCGUGAGGACGAAACAG it was 0.464; in that of ACCGGAGGUGCUUUCCGGGCUGAUGAGUCCGUGAGGACGAAACAG, 0.304.
With ACCGGAUGUGCUUUCCGGUCUGAUGAGUCCGUGAGGACGGAAGAG, the self-cleavage worked out at 0.358.
The value for ACCGGAUGUGCUUUCCGGUCUGAUGAGUCUGUGAGGAUGAAACAG was 1.1; that for ACCGGUUGUGCUUUCCGGUCUGAUGAGUCCGUCAGGACGAAACAG was 0.551; that for ACCGGAUUUGCUUUCCGGUCUGAUGAGUCCGUGAGGGCGAAACAG was 0.906.
In the case of ACCGGAUGUGCUUUCCGUUCUGAUGAGUCCGUUAGGACGAAACAG it was 0.705; in that of ACCGGAUGUGCUAUCCGGUCUGAUGAGUCCGUGAGGACGAGACAG, 0.311; in that of ACCGGAUGUGCUUUCCGGUCUGAUGAGUCCGUCCGGACGAAACAG, 0.801.
In the case of ACCGGAUGUGCUUUCCGGUCUGAUGAGCCCGUGAGGAGGAAACAG it was 0.575; in that of ACCGGAUGUGCUUUCCGGUCGGAGGAGUCCGUGAGGACGAAACAG, 0.536; in that of ACCGGAGGUGCUUUCCGGUCUGAUGAGUGCGUGAGGACGAAACAG, 0.488.
With ACCGGAAGUGCUUUCCGCUCUGAUGAGUCCGUGAGGACGAAACAG, the self-cleavage turned out to be 0.365.
In the case of AUCGGAUGUGCUUUCCGGUCUGAUGAGUCCGUGAGGACGAUACAG it was 0.365; in that of ACCGGAUGUGCUUUUCGGUCUGAUGAGUCCGUGAGGACGAAACAG, 0.912.
The value for ACCGGAUCUGCUUUCCGGUCUGAUGAGUACGUGAGGACGAAACAG was 0.548.
The value for ACCGAAUGUGCUUUCCGGUCUGAUGAGUCCGUCAGGACGAAACAG was 1.22; that for ACCGGAUGUGCUUUCUGGUCUGAUGAGUCCGUGAGGACGAAACAU was 0.688; that for ACCAGAUGUGCUUUCCGGGCUGAUGAGUCCGUGAGGACGAAACAG was 0.238.
For ACCGGAUGUGAUUUCCGGUCUGAUGAGUCCGUGAGGACGAAAGAG, the self-cleavage was determined as 0.353.
The value for ACCGGAUGUGCUUUCCGGUCUGAUGAUUCCGUGAGCACGAAACAG was 0.304; that for ACCGGAAGUGCUUUCCGGUCUGAUGAGUCCGUGAGGACGCAACAG was 0.261.
The value for ACCGGAUGUGCUUUCCGGUCUGAUGAGUCCGUGAUGACGAAAGAG was 0.34; that for ACCGGAUCUGCUUUCCGGUCUGAUGAGUCCGCGAGGACGAAACAG was 1.46; that for ACCGGAUGUGCUUUCCGGUCUGAUGAGUCCGUGAGGAAGAAACGG was 0.862.
As for ACCGGAUGUGCUUCCCGGUCUGAUGAGUCCGUGAGGGCGAAACAG, the self-cleavage is 0.945.
As for ACCGGAUGUGCUUUCCGGUCGGAUGAGUCCGUGACGACGAAACAG, the self-cleavage came to 0.306.
Consider ACCGGAUGUGCUUUUCGGUCUGAUGAGUCCGUGAGGACGAAAGAG, for which the self-cleavage amounted to 0.305.
The value for ACCGGAUGUGCUUUCCGGUCUGAUGAAUCCGAGAGGACGAAACAG was 0.736; that for ACCGGAUGUGCUUUCCGGUCUGAUGAGUCCGUGAGAAGGAAACAG was 0.342; that for ACCGGAUGUGUUUUCCGGUCUGAUGAGUCCGUGAGGACGAACCAG was 0.388.
ACCGGAUACGCUUUCCGGUCUGAUGAGUCCGUGAGGACGAAACAG: the self-cleavage came to 1.33.
For ACCGGAAGUGCUUUCCGGUCUGAUGUGUCCGUGAGGACGAAACAG, the self-cleavage stood at 0.556.
The value for ACCGGAUAUGCUUUCCGGUCUGAUGAGUCCGUGAUGACGAAACAG was 0.588; that for CCCGGAUGUGCUUUCCGGUCUAAUGAGUCCGUGAGGACGAAACAG was 0.396; that for ACCGGAUGUGCUUUCCGGUCUGAUGAGUCCGUGAGGACCAAAUAG was 0.368.
The value for ACCGGAGGUGCUUUCCGGUCUGAUGAGUCCCUGAGGACGAAACAG was 0.968.
The value for ACCGGAUGUGCUUUCCGGUCUGAUGAGACCGUGACGACGAAACAG was 0.435.
